# Measured values taken from paper PMC4278586 (Cell, 2014).
# B1: PGT124 Fab (Fab, V domains shown)
# VH: QVQLQESGPGLVRPSETLSVTCIVSGGSISNYYWTWIRQSPGKGLEWIGYISDRETTTYNPSLNSRAVISRDTSKNQLSLQLRSVTTADTAIYFCATARRGQRIYGVVSFGEFFYYYYMDVWGKGTAVTVSS
# VL: SYVSPLSVALGETARISCGRQALGSRAVQWYQHKPGQAPILLIYNNQDRPSGIPERFSGTPDINFGTTATLTISGVEVGDEADYYCHMWDSRSGFSWSFGGATRLTVL
# Assays:
# [1] = biological target: full-length gp120 pre-complexed with CD4 (HIV-1, isolate  (JRCSF as …, UniProt P20871;P01730)); assay: ITC
# [2] = biological target: full-length gp120 monomer (HIV-1, isolate ; JRCSF as …, UniProt P20871); assay: ITC
binder,measurement,setting,value
B1,Kd,[1],34 nM
same,Kd,[2],38 nM
